According to article PMC11950852, “Diversity Scale of Library Matters: Impact of mRNA Library Diversity Scales on the Discovery of Macrocyclic Peptides Targeting a Protein by the RaPID System” (ACS Central Science, 2025):
Like-named read-outs stand apart in the source and are kept apart here. Where a SMILES comes first, the peptide text is derived from it. Bridges are numbered along the chain shown (N, C = ends). Where no end group is shown, it is not given here.

Key:
cMET = conditions: cited from earlier work
Description: To answer our questions raised in the introduction, we chose the ectodomain of MET fused to Fc as a selection target for two reasons. (1) Since we previously performed the RaPID campaign using a thioether-macrocyclic peptide library and successfully identified potent ligands with the range of KD of 2–20 nM (Table S1A), this target has been validated as a reliable protein to reproduce the selection experiment.[22] (2) At the time when the selection was performed previously, the NGS technology was unavailable in our laboratory, and thereby the sequences were determined by ∼40 clones available fr ... || page 9: Table S1A. Representative peptide sequences discovered by RaPID system. Residues engaged in thioether- macrocyclization are marked with asterisks. mRNA display (RaPID system) Diversity scale: >1012 Screening KD IC50 Library design/ Consensus motif/ Variants Reference Target (nM) (nM) Note Peptide sequence DW*X2MeSX2MeF-MeG/X- E6AP 0.6 DW*X8-15C* 6 (32) XMeFPC* 92 LY*WIX2TWPXVXRXC* 2 Akt2 L/DY*X4-12C* (33) 110 LY*ILVRNRXLRVDC* 2 3.8 LY*SNFRI-LysTfa-RYSNSSC* 21 SIRT2 L/DY*-Xn-LysTfa-XnC* (34) 3.7 DY*HDYRI-LysTfa-RYHTYPC* 16 94 LF*VVVSTDPWVNGLYIDC* 2 8 LF*IGHYRVKVHPISLERC* 1 VEGFR2 L/DF*X ...

[1] = molecular target: Fc-fused MET (His-/hFc-tagged human MET ectodomain) (Homo sapiens, UniProt P08581); assay: SPR binding kinetics of selected macrocyclic peptides to Fc-fused MET
[2] = molecular target: T1, ectodomain of MET (hepatocyte growth factor receptor) fused to Fc (UniProt P08581 25-932); assay: SPR; macrocyclic peptides on MET; concentration-dependent sensorgrams fitted by a 1:1 binding model; conditions: both partners purified
T1 construct: MET, hepatocyte growth factor receptor, a receptor tyrosine kinase; ectodomain; also called MET-Fc; Fc-tagged MET

[3] = molecular target: T2, ectodomain of MET fused to Fc (UniProt P08581 25-932); assay: SPR; fitted by a 1:1 binding model; who was immobilised and the conditions are in the Supporting Information (not shown); conditions: both partners purified
T2 construct: MET (hepatocyte growth factor receptor), a receptor tyrosine kinase; also called MET-Fc; Fc-tagged MET

[4] = molecular target: T3, ectodomain of MET fused to Fc (UniProt P08581 25-932); assay: SPR
T3 chain: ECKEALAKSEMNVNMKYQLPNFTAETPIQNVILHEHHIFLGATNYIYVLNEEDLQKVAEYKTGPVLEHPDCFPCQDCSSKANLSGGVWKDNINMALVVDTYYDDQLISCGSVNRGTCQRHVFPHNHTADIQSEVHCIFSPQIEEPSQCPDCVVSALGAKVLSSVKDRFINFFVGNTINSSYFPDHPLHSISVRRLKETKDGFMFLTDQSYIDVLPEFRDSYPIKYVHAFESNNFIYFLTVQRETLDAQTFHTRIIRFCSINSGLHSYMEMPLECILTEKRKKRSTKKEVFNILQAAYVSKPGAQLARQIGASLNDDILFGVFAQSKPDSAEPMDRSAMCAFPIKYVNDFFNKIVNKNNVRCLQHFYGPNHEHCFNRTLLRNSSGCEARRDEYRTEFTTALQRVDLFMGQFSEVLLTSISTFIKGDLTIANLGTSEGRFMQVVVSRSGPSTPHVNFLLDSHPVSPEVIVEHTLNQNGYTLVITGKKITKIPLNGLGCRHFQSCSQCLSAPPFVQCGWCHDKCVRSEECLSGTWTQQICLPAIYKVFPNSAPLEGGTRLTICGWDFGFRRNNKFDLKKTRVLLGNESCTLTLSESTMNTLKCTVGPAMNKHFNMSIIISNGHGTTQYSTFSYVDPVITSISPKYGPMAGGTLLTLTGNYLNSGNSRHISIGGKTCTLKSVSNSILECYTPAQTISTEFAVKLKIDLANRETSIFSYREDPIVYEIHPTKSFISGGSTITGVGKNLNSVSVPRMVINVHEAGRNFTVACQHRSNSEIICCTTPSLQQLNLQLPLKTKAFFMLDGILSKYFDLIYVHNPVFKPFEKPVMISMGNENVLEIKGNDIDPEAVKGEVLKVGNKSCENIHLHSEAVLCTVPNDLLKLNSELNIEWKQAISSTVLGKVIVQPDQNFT

[5] = molecular target: T3, ectodomain of MET fused to Fc; assay: SPR
[6] = molecular target: T1, ectodomain of MET (hepatocyte growth …); assay: SPR; macrocyclic peptides on MET; concentration-dependent sensorgrams fitted by a 1:1 binding model; conditions: both partners purified; remark: listed apart in the source
[7] = library L/DY*X4-15C*, mRNA display (RaPID system), ref (16), read-out: KD (Table S1A, screening target cMET)

Molecule: CC[C@H](C)[C@@H]1NC(=O)[C@H](Cc2ccc(O)cc2)NC(=O)CSC[C@@H](C(=O)NCC(N)=O)NC(=O)[C@H]([C@@H](C)O)NC(=O)[C@H]([C@@H](C)CC)NC(=O)[C@H](Cc2ccccc2)NC(=O)[C@H](CCCNC(=N)N)NC(=O)[C@H](Cc2c[nH]c3ccccc23)NC(=O)[C@H](CC(N)=O)NC(=O)[C@@H]2CCCN2C(=O)[C@H](CO)NC(=O)[C@H](CC(N)=O)NC(=O)[C@H](Cc2ccccc2)NC(=O)[C@H](CCC(=O)O)NC(=O)[C@H](CC(N)=O)NC(=O)[C@H](Cc2c[nH]c3ccccc23)NC(=O)[C@H](CO)NC1=O [aML5, reference compound] ({CH2CO}-YISWNEFNSPNWRFITCG-NH2; thioether N-17)
- Kd (cMET; previously determined value, read-out: KD (previous RaPID campaign)): 19 nM
- kd ([1]; SPR conditions as E1): 0.00606 s⁻¹
- kon ([1]; pH 7.4, read-out: ka): 539000 M⁻¹ s⁻¹
- kon ([1]; read-out: ka, Measure 1): 371000 M⁻¹ s⁻¹
- kon ([1]; read-out: ka, Measure 2): 405000 M⁻¹ s⁻¹

Molecule: DY*RQFNRRTHEVWNLDC* (sidechain bridge or staple)
- Kd (cMET; [7]): 2.4 nM

Molecule: DY*WYYAWDQTYKAFPC* (sidechain bridge or staple)
- Kd (cMET; [7]): 2.3 nM

Molecule: {CH2CO}-YIEWNRFNSKLWNCNCCG-NH2 (thioether N-17; cysteine pairing not given here) [macrocyclic peptide 10-4]
- Kd [2]: 308 nM

B1: macrocyclic peptide 10-2 (peptide)
chain: {CH2CO}-YWYYTFDGRWKEYGAACG-NH2
modifications: thioether N-17
SMILES: C[C@@H]1NC(=O)CNC(=O)[C@H](Cc2ccc(O)cc2)NC(=O)[C@H](CCC(=O)O)NC(=O)[C@H](CCCCN)NC(=O)[C@H](Cc2c[nH]c3ccccc23)NC(=O)[C@H](CCCNC(=N)N)NC(=O)CNC(=O)[C@H](CC(=O)O)NC(=O)[C@H](Cc2ccccc2)NC(=O)[C@H]([C@@H](C)O)NC(=O)[C@H](Cc2ccc(O)cc2)NC(=O)[C@H](Cc2ccc(O)cc2)NC(=O)[C@H](Cc2c[nH]c3ccccc23)NC(=O)[C@H](Cc2ccc(O)cc2)NC(=O)CSC[C@@H](C(=O)NCC(N)=O)NC(=O)[C@H](C)NC1=O
- Kd [2]: 31 nM

B2: 12–1 (peptide)
chain: {CH2CO}-YISWFAYASKDWFVRPCG-NH2
modifications: thioether N-17
SMILES: CC[C@H](C)[C@@H]1NC(=O)[C@H](Cc2ccc(O)cc2)NC(=O)CSC[C@@H](C(=O)NCC(N)=O)NC(=O)[C@@H]2CCCN2C(=O)[C@H](CCCNC(=N)N)NC(=O)[C@H](C(C)C)NC(=O)[C@H](Cc2ccccc2)NC(=O)[C@H](Cc2c[nH]c3ccccc23)NC(=O)[C@H](CC(=O)O)NC(=O)[C@H](CCCCN)NC(=O)[C@H](CO)NC(=O)[C@H](C)NC(=O)[C@H](Cc2ccc(O)cc2)NC(=O)[C@H](C)NC(=O)[C@H](Cc2ccccc2)NC(=O)[C@H](Cc2c[nH]c3ccccc23)NC(=O)[C@H](CO)NC1=O
- koff [3]: 0.00254 s⁻¹
- Kd [4]: 32 nM

B3: macrocyclic peptide 10-6 (peptide)
chain: {CH2CO}-YWWYYWYRDEYLWRTRCG-NH2
modifications: thioether N-17
SMILES: CC(C)C[C@@H]1NC(=O)[C@H](Cc2ccc(O)cc2)NC(=O)[C@H](CCC(=O)O)NC(=O)[C@H](CC(=O)O)NC(=O)[C@H](CCCNC(=N)N)NC(=O)[C@H](Cc2ccc(O)cc2)NC(=O)[C@H](Cc2c[nH]c3ccccc23)NC(=O)[C@H](Cc2ccc(O)cc2)NC(=O)[C@H](Cc2ccc(O)cc2)NC(=O)[C@H](Cc2c[nH]c3ccccc23)NC(=O)[C@H](Cc2c[nH]c3ccccc23)NC(=O)[C@H](Cc2ccc(O)cc2)NC(=O)CSC[C@@H](C(=O)NCC(N)=O)NC(=O)[C@H](CCCNC(=N)N)NC(=O)[C@H]([C@@H](C)O)NC(=O)[C@H](CCCNC(=N)N)NC(=O)[C@H](Cc2c[nH]c3ccccc23)NC1=O
- Kd [2]: 219 nM

Molecule: {CH2CO}-YNCLWVECKIVLPNGRCG (disulfide 8-17; thioether N-3) [12–4]
- koff [3]: 0.00721 s⁻¹
- Kd [4]: 15.8 nM

B4: macrocyclic peptide 10-5 (peptide)
chain: {CH2CO}-YLLWHKYDNKDWVYVDCG-NH2
modifications: thioether N-17
SMILES: CC(C)C[C@@H]1NC(=O)[C@H](Cc2ccc(O)cc2)NC(=O)CSC[C@@H](C(=O)NCC(N)=O)NC(=O)[C@H](CC(=O)O)NC(=O)[C@H](C(C)C)NC(=O)[C@H](Cc2ccc(O)cc2)NC(=O)[C@H](C(C)C)NC(=O)[C@H](Cc2c[nH]c3ccccc23)NC(=O)[C@H](CC(=O)O)NC(=O)[C@H](CCCCN)NC(=O)[C@H](CC(N)=O)NC(=O)[C@H](CC(=O)O)NC(=O)[C@H](Cc2ccc(O)cc2)NC(=O)[C@H](CCCCN)NC(=O)[C@H](Cc2c[nH]cn2)NC(=O)[C@H](Cc2c[nH]c3ccccc23)NC(=O)[C@H](CC(C)C)NC1=O
- Kd [2]: 19.5 nM
- koff [5]: 0.00694 s⁻¹

B5: macrocyclic peptide 12-2 (peptide)
chain: {CH2CO}-YYSWSGNVSESVKWNSCG-NH2
modifications: thioether N-17
SMILES: CC(C)[C@@H]1NC(=O)[C@H](CC(N)=O)NC(=O)CNC(=O)[C@H](CO)NC(=O)[C@H](Cc2c[nH]c3ccccc23)NC(=O)[C@H](CO)NC(=O)[C@H](Cc2ccc(O)cc2)NC(=O)[C@H](Cc2ccc(O)cc2)NC(=O)CSC[C@@H](C(=O)NCC(N)=O)NC(=O)[C@H](CO)NC(=O)[C@H](CC(N)=O)NC(=O)[C@H](Cc2c[nH]c3ccccc23)NC(=O)[C@H](CCCCN)NC(=O)[C@H](C(C)C)NC(=O)[C@H](CO)NC(=O)[C@H](CCC(=O)O)NC(=O)[C@H](CO)NC1=O
- Kd [6]: 8.67 nM
